Key:
[1] = biological target: PD-L1, histidine (His)-tagged (UniProt Q9NZQ7); assay: AlphaScreen or HTRF; AlphaLISA kit AL356 HV/C/F (PerkinElmer), competition: biotin-conjugated PD-1 on streptavidin-coated donor beads, His-tagged PD-L1 on anti-His acceptor beads; 2 uL each of inhibitor dilution, PD-L1 (25 nM), PD-1 (25 nM) and the two beads in 10 uL; 25 °C, 90 min; IC50 from sigmoidal fit
[2] = biological target: PD-L1 (Homo sapiens) (UniProt Q9NZQ7); conditions: cited from earlier work
Sequence of PD-L1 (Homo sapiens) (Q9NZQ7 19-238): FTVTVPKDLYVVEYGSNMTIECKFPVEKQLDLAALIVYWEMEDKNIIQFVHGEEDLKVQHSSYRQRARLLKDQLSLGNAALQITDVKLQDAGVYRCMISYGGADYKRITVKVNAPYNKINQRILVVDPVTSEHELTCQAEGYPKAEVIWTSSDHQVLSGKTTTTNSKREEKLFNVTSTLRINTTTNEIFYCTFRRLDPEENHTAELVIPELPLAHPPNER

Sequence of PD-L1, histidine (His)-tagged (Q9NZQ7 19-238): as above
Sequence of PD-1 (Q15116 25-170): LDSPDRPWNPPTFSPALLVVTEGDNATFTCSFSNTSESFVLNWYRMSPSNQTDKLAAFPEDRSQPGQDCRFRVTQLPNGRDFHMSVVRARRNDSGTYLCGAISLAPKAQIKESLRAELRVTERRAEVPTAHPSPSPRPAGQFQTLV

| IC50 [1] | Substance | Kd [2] |
| --- | --- | --- |
| 308 µM | CERXNKM (peptide) | – |
| 312 µM | FWRXNNI (peptide) | – |
| – | PD-1 (from UniProt Q15116) | 6.4 µM |
